In patent US20250257137A1:

Assays:
[1] = target: anti-CMVpHLA antibody (available from Ajou University)
[2] = target: anti-CMVpHLA antibody (available from Ajou University); remark: listed apart in the source
[3] = target: pIgR (polymeric Ig receptor; R&D systems) (UniProt P01833); test: ELISA, pIgR coated, anti-IgM-HRP; IMB-4011 = 100
[4] = target: Fcα/µ receptor (R&D systems) (UniProt Q8WWV6); test: ELISA, Fcα/µ coated, anti-IgM-HRP; IMB-4011 = 100
[5] = target: Fcµ receptor (R&D systems) (UniProt O60667); test: ELISA, Fcµ coated, anti-IgM-HRP; IMB-4011 = 100
[6] = target: pIgR (polymeric Ig receptor; R&D systems) (UniProt P01833); test: ELISA, pIgR coated; IMB-4011 = 100 (Example 2-7)
[7] = target: Fcα/µ receptor (R&D systems) (UniProt Q8WWV6); test: ELISA, Fcα/µ coated; IMB-4011 = 100 (Example 2-7)
[8] = target: Fcµ receptor (R&D systems) (UniProt O60667); test: ELISA, Fcµ coated; IMB-4011 = 100 (Example 2-7)
[9] = target: conjugate of FcRn and β2m antigen (ACRO biosystems) (UniProt P55899)

Substance: CMVpHLA (peptide-MHC)
- Kd [1]: 1840 pM
- koff [1]: 0.00464 s⁻¹
- kon [1]: 2.52e+06 M⁻¹ s⁻¹

Substance: [(CMVpHLA)2-((GGGGS)3)2-(IgM Fc region)]5-(J chain) (from UniProt P01591 23-159) (Fc fusion)
- Kd [1]: 6.22 pM

Substance: [(CMVpHLA)2-(IgA hinge region)2-(IgM Fc region)]5-(J chain) (from UniProt P01591 23-159) (Fc fusion)
- Kd [1]: 5.86 pM

Substance: [(CMVpHLA)2-(IgD hinge region)2-(IgM Fc region)]5-(J chain) (from UniProt P01591 23-159) (Fc fusion)
- EC50 (read off the curve) [2]: 20 pM
- Kd [1]: 6.81 pM

Substance: [(CMVpHLA)2-(IgD hinge region)2-(IgM Fc region)]6-(J chain)0 (Fc fusion)
- Kd [1]: 23.3 pM
- koff [1]: 0.000197 s⁻¹
- kon [1]: 8.44e+06 M⁻¹ s⁻¹

Substance: [(CMVpHLA)2-(linker)0-(IgM Fc region)]5-(J chain) (from UniProt P01591 23-159) (Fc fusion)
- EC50 (read off the curve) [2]: 10 pM
- Kd [1]: 10.2 pM

Substance: [(CMVpHLA)2-(linker)2-(IgG Fc region)-(IgM Fc region L126 deletion)]5-(J chain) (from UniProt P0DOX6 341-576; P01591 23-159) (Fc fusion)
- Relative binding ability to pIgR (%) [3]: 6%
- Relative binding ability to Fcα/µ receptor (%) [4]: 1%
- Relative binding ability to Fcµ receptor (%) [5]: 12%

Substance: [(CMVpHLA)2-(linker)2-(IgG Fc region)-(IgM Fc region L126G)]5-(J chain R106V) (from UniProt P0DOX6 341-576; P01591 23-159) (Fc fusion)
- Relative binding ability to pIgR (%) [6]: 2%
- Relative binding ability to Fcα/µ receptor (%) [7]: 0.4%
- Relative binding ability to Fcµ receptor (%) [8]: 3%

Substance: [(CMVpHLA)2-(linker)2-(IgG Fc region)-(IgM Fc region L126G)]5-(J chain R106W) (from UniProt P0DOX6 341-576; P01591 23-159) (Fc fusion)
- Relative binding ability to pIgR (%) [6]: 2%
- Relative binding ability to Fcα/µ receptor (%) [7]: 0.5%
- Relative binding ability to Fcµ receptor (%) [8]: 3%

Substance: [(CMVpHLA)2-(linker)2-(IgG Fc region)-(IgM Fc region L126G)]5-(J chain) (from UniProt P0DOX6 341-576; P01591 23-159) (Fc fusion)
- Relative binding ability to Fcµ receptor (%) [5]: 7%

Substance: [(CMVpHLA)2-(linker)2-(IgG Fc region)-(IgM Fc region L126S)]5-(J chain R106V) (from UniProt P0DOX6 341-576; P01591 23-159) (Fc fusion)
- Relative binding ability to pIgR (%) [6]: 2%
- Relative binding ability to Fcα/µ receptor (%) [7]: 1%
- Relative binding ability to Fcµ receptor (%) [8]: 3%

Substance: [(CMVpHLA)2-(linker)2-(IgG Fc region)-(IgM Fc region L126S)]5-(J chain R106W) (from UniProt P0DOX6 341-576; P01591 23-159) (Fc fusion)
- Relative binding ability to pIgR (%) [6]: 3%
- Relative binding ability to Fcα/µ receptor (%) [7]: 1%
- Relative binding ability to Fcµ receptor (%) [8]: 3%

Substance: [(CMVpHLA)2-(linker)2-(IgG Fc region)-(IgM Fc region L126S)]5-(J chain) (from UniProt P0DOX6 341-576; P01591 23-159) (Fc fusion)
- Relative binding ability to pIgR (%) [3]: 8%
- Relative binding ability to Fcµ receptor (%) [5]: 7%

Substance: [(CMVpHLA)2-(linker)2-(IgG Fc region)-(IgM Fc region N125K)]5-(J chain) (from UniProt P0DOX6 341-576; P01591 23-159) (Fc fusion)
- Relative binding ability to Fcµ receptor (%) [5]: 7%

Substance: [(CMVpHLA)2-(linker)2-(IgG Fc region)-(IgM Fc region)]5-(J chain D105K) (from UniProt P0DOX6 341-576; P01591 23-159) (Fc fusion)
- Relative binding ability to pIgR (%) [3]: 8%

Substance: [(CMVpHLA)2-(linker)2-(IgG Fc region)-(IgM Fc region)]5-(J chain N107K) (from UniProt P0DOX6 341-576; P01591 23-159) (Fc fusion)
- Relative binding ability to pIgR (%) [3]: 8%

Substance: [(CMVpHLA)2-(linker)2-(IgG Fc region)-(IgM Fc region)]5-(J chain R106 deletion) (from UniProt P0DOX6 341-576; P01591 23-159) (Fc fusion)
- Relative binding ability to pIgR (%) [3]: 4%
- Relative binding ability to Fcα/µ receptor (%) [4]: 1%
- Relative binding ability to Fcµ receptor (%) [5]: 59%

Substance: [(CMVpHLA)2-(linker)2-(IgG Fc region)-(IgM Fc region)]5-(J chain R106F) (from UniProt P0DOX6 341-576; P01591 23-159) (Fc fusion)
- Relative binding ability to Fcα/µ receptor (%) [4]: 7%

Substance: [(CMVpHLA)2-(linker)2-(IgG Fc region)-(IgM Fc region)]5-(J chain) (from UniProt P0DOX6 341-576; P01591 23-159) (Fc fusion)
- EC50 (read off the curve) [9]: 200 nM
